Data on 42 molecules can be found in patent US20210388087A1 (Chugai, published 2021).

Numbering of substitutions follows the chain as printed. Names may count otherwise.

Sequences and labels used below:
T1: Human CD3eg linker (human)
T1 construct: single-chain construct; also called recombinant human CD3
T1 chain: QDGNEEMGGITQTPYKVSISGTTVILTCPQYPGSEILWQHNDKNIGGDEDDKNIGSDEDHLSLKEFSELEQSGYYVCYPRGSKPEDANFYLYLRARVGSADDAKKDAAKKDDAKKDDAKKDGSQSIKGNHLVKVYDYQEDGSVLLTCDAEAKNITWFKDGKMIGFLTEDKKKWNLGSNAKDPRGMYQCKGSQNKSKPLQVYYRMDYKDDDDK

B1: dBBDu183H T100bW/dBBDu072L (antibody, name in Kabat numbering, V domains shown)
VH: QVQLVESGGGLVQPGRSLRLSCAASGFTFSNAWMHWVRQAPGKGLEWVAQIKDKGNAYAAYYAPSVKGRFTISRDDSKNSIYLQMNSLKTEDTAVYYCHYVHYASASWVLPAFGVDAWGQGTTVTVSS
VL: DIVMTQSPLSLPVTPGEPASISCQASQELVHMNRNTYLHWYQQKPGQAPRLLIYKVSNRFPGVPDRFSGSGSGTDFTLKISRVEAEDVGVYYCAQGTSVPFTFGQGTKLEIK
B2: dBBDu183H V100cQ/dBBDu072L (antibody, name in Kabat numbering, V domains shown)
VH: B1 VH with W108T, V109Q
VL: B1 VL
B3: dBBDu183H V63W/dBBDu072L (antibody, name in Kabat numbering, V domains shown)
VH: B1 VH with V66W, W108T
VL: B1 VL
B4: dBBDu183H V63E/dBBDu072L (antibody, name in Kabat numbering, V domains shown)
VH: B1 VH with V66E, W108T
VL: B1 VL
B5: dBBDu183H V95Y/dBBDu072L (antibody, name in Kabat numbering, V domains shown)
VH: B1 VH with V101Y, W108T
VL: B1 VL
B6: dBBDu183H V95W/dBBDu072L (antibody, name in Kabat numbering, V domains shown)
VH: B1 VH with V101W, W108T
VL: B1 VL
B7: dBBDu183H V95F/dBBDu072L (antibody, name in Kabat numbering, V domains shown)
VH: B1 VH with V101F, W108T
VL: B1 VL
B8: dBBDu183H V95H/dBBDu072L (antibody, name in Kabat numbering, V domains shown)
VH: B1 VH with V101H, W108T
VL: B1 VL
B9: dBBDu183H V63Q/dBBDu072L (antibody, name in Kabat numbering, V domains shown)
VH: B1 VH with V66Q, W108T
VL: B1 VL
B10: dBBDu183H V63F/dBBDu072L (antibody, name in Kabat numbering, V domains shown)
VH: B1 VH with V66F, W108T
VL: B1 VL
B11: dBBDu183H V100cF/dBBDu072L (antibody, name in Kabat numbering, V domains shown)
VH: B1 VH with W108T, V109F
VL: B1 VL
B12: dBBDu183H V95N/dBBDu072L (antibody, name in Kabat numbering, V domains shown)
VH: B1 VH with V101N, W108T
VL: B1 VL
B13: dBBDu183H V100cD/dBBDu072L (antibody, name in Kabat numbering, V domains shown)
VH: B1 VH with W108T, V109D
VL: B1 VL
B14: dBBDu183H V95K/dBBDu072L (antibody, name in Kabat numbering, V domains shown)
VH: B1 VH with V101K, W108T
VL: B1 VL
B15: dBBDu183H V100cG/dBBDu072L (antibody, name in Kabat numbering, V domains shown)
VH: B1 VH with W108T, V109G
VL: B1 VL
B16: dBBDu183H V95Q/dBBDu072L (antibody, name in Kabat numbering, V domains shown)
VH: B1 VH with V101Q, W108T
VL: B1 VL
B17: dBBDu183H V95D/dBBDu072L (antibody, name in Kabat numbering, V domains shown)
VH: B1 VH with V101D, W108T
VL: B1 VL
B18: dBBDu183H V100cH/dBBDu072L (antibody, name in Kabat numbering, V domains shown)
VH: B1 VH with W108T, V109H
VL: B1 VL
B19: dBBDu183H V100cY/dBBDu072L (antibody, name in Kabat numbering, V domains shown)
VH: B1 VH with W108T, V109Y
VL: B1 VL
B20: dBBDu183H V95T/dBBDu072L (antibody, name in Kabat numbering, V domains shown)
VH: B1 VH with V101T, W108T
VL: B1 VL
B21: dBBDu183H V95R/dBBDu072L (antibody, name in Kabat numbering, V domains shown)
VH: B1 VH with V101R, W108T
VL: B1 VL
B22: dBBDu183H V63N/dBBDu072L (antibody, name in Kabat numbering, V domains shown)
VH: B1 VH with V66N, W108T
VL: B1 VL
B23: dBBDu183H V63Y/dBBDu072L (antibody, name in Kabat numbering, V domains shown)
VH: B1 VH with V66Y, W108T
VL: B1 VL
B24: dBBDu183H V95E/dBBDu072L (antibody, name in Kabat numbering, V domains shown)
VH: B1 VH with V101E, W108T
VL: B1 VL
B25: dBBDu183H V100cN/dBBDu072L (antibody, name in Kabat numbering, V domains shown)
VH: B1 VH with W108T, V109N
VL: B1 VL
B26: dBBDu183H T100bY/dBBDu072L (antibody, name in Kabat numbering, V domains shown)
VH: B1 VH with W108Y
VL: B1 VL
B27: dBBDu183H V63T/dBBDu072L (antibody, name in Kabat numbering, V domains shown)
VH: B1 VH with V66T, W108T
VL: B1 VL
B28: dBBDu183H V63D/dBBDu072L (antibody, name in Kabat numbering, V domains shown)
VH: B1 VH with V66D, W108T
VL: B1 VL
B29: dBBDu183H V63G/dBBDu072L (antibody, name in Kabat numbering, V domains shown)
VH: B1 VH with V66G, W108T
VL: B1 VL
B30: dBBDu183H V95G/dBBDu072L (antibody, name in Kabat numbering, V domains shown)
VH: B1 VH with V101G, W108T
VL: B1 VL
B31: dBBDu183H V100cT/dBBDu072L (antibody, name in Kabat numbering, V domains shown)
VH: B1 VH with W108T, V109T
VL: B1 VL
B32: dBBDu183H V100cK/dBBDu072L (antibody, name in Kabat numbering, V domains shown)
VH: B1 VH with W108T, V109K
VL: B1 VL
B33: dBBDu183H V63H/dBBDu072L (antibody, name in Kabat numbering, V domains shown)
VH: B1 VH with V66H, W108T
VL: B1 VL
B34: dBBDu183H V100iD/dBBDu072L (antibody, name in Kabat numbering, V domains shown)
VH: B1 VH with W108T, V115D
VL: B1 VL
B35: dBBDu183H V100cW/dBBDu072L (antibody, name in Kabat numbering, V domains shown)
VH: B1 VH with W108T, V109W
VL: B1 VL
B36: dBBDu183H V100cE/dBBDu072L (antibody, name in Kabat numbering, V domains shown)
VH: B1 VH with W108T, V109E
VL: B1 VL
B37: dBBDu183H V95S/dBBDu072L (antibody, name in Kabat numbering, V domains shown)
VH: B1 VH with V101S, W108T
VL: B1 VL
B38: dBBDu183H V63K/dBBDu072L (antibody, name in Kabat numbering, V domains shown)
VH: B1 VH with V66K, W108T
VL: B1 VL
B39: dBBDu183H V100cS/dBBDu072L (antibody, name in Kabat numbering, V domains shown)
VH: B1 VH with W108T, V109S
VL: B1 VL
B40: dBBDu183H V100cR/dBBDu072L (antibody, name in Kabat numbering, V domains shown)
VH: B1 VH with W108T, V109R
VL: B1 VL
B41: dBBDu183H V63R/dBBDu072L (antibody, name in Kabat numbering, V domains shown)
VH: B1 VH with V66R, W108T
VL: B1 VL
B42: dBBDu183H V63S/dBBDu072L (antibody, name in Kabat numbering, V domains shown)
VH: B1 VH with V66S, W108T
VL: B1 VL

The experiment concerns the target T1, Human CD3eg linker. The experiment can be described thus: SPR, vs unmutated H183/L072. A general note: SPR reads the build-up and loss of mass on a sensor chip optically.
Take B1: the “fold change of affinity” value is 1.8 fold.

B2: the “fold change of affinity” value came to 1.4 fold. As to B3, the “fold change of affinity” value was determined as 0.8 fold.

For the molecule B4, the “fold change of affinity” value worked out at 1.1 fold. For B5 the value was 0 fold. For B6 the value was 0 fold.

As to B7, the “fold change of affinity” value turned out to be 0 fold. B8: the “fold change of affinity” value worked out at 0 fold. For the molecule B9, the “fold change of affinity” value stood at 1.2 fold. For B10 the value was 1.1 fold.

On to B11, for which the “fold change of affinity” value was determined as 1.8 fold.

Consider B12, for which the “fold change of affinity” value came out at 0 fold.

Regarding B13, the “fold change of affinity” value stood at 0.8 fold. For B14 the value was 0 fold; for B15, 1.5 fold. Turning to B16, the “fold change of affinity” value is 0 fold.

B17: the “fold change of affinity” value is 0 fold.

In the case of B18, the “fold change of affinity” value turned out to be 1.2 fold.

Consider B19, for which the “fold change of affinity” value came out at 1.3 fold.

Consider B20, for which the “fold change of affinity” value is 0 fold. Next, B21: 0 fold; B22: 1.3 fold; B23: 1.1 fold. For B24 the value was 0 fold; for B25, 1 fold. Regarding B26, the “fold change of affinity” value is 1.8 fold. Consider B27, for which the “fold change of affinity” value stood at 1.2 fold. For the molecule B28, the “fold change of affinity” value came to 1.3 fold. With B29, the “fold change of affinity” value is 1 fold. Turning to B30, the “fold change of affinity” value is 0 fold.

Regarding B31, the “fold change of affinity” value is 1 fold. For B32 the value was 1.2 fold; for B33, 1 fold. For B34 the value was 2.4 fold. For the molecule B35, the “fold change of affinity” value was 1.5 fold. Next, B36: 0.8 fold; B37: 0 fold. Next, B38: 1.3 fold; B39: 1.1 fold. For B40 the value was 1.5 fold; for B41, 1.2 fold. For B42, the “fold change of affinity” value was 1.1 fold.
